Measured values taken from US20190077864A1 (ONCOMED PHARMACEUTICALS, published 2019).
Changes are numbered by the printed parent chain.

How the values were obtained:
[1] = molecular target: T1, mouse TIGIT ECD-CD4TM-GFP on HEK-293T cells (mouse, UniProt P86176 29-148); experiment: flow cytometry, 1 µg/ml antibody on HEK-293T cells transiently transfected with mTIGIT-CD4TM-GFP, PE-conjugated anti-Fc secondary
T1 construct: The legend names the construct as mouse TIGIT ECD; also called mouse TIGIT-CD4TM-GFP; mTIGIT-CD4TM-GFP; not shown: transmembrane domain of CD4 (CD4TM); GFP (green fluorescent protein)
T1 sequence: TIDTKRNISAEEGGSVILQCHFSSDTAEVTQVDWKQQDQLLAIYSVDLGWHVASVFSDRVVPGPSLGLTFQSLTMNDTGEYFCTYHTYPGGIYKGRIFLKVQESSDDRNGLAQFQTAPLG
Description: (§1) The TIGIT variants were evaluated by FACS with anti-hTIGIT antibodies. […] After 16 hours, transfected cells were suspended in ice cold HBSS containing 2% FBS and incubated on ice with 1 μg/ml anti-hTIGIT antibodies 313R12, 313M32, or 313M34 for 30 minutes. 313M34 is an anti-hTIGIT antibody that was generated based upon the amino acid sequences of the 10A7 antibody described in U.S. Publication 2009/0258013. The 10A7 antibody is an anti-mouse TIGIT antibody that binds both mouse TIGIT and human TIGIT. A second incubation with 50 μl PE-conjugated anti-Fc secondary antibody was performed to detect cells bound by the antibodies. The cells were analyzed on a FACSCanto instrument (BD Biosciences) and the data was processed using FlowJo software.

[2] = molecular target: T2, hTIGIT-CD4TM-GFP on HEK-293T cells (human, UniProt Q495A1 22-141); experiment: inferred from two blocking studies of hPVR-rbFc binding to hTIGIT cells, flow cytometry
T2 construct: Cell surface fusion protein, transiently expressed; also called human TIGIT ECD-CD4TM-GFP; FLAG-hTIGIT-CD4TM-GFP; not shown: transmembrane domain of CD4 (CD4TM); C-terminal GFP protein tag
T2 sequence: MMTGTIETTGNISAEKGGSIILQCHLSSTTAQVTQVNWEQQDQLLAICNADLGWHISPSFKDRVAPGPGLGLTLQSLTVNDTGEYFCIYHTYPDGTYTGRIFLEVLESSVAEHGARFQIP
Description: After 16 hours, transfected cells were suspended in ice cold HBSS containing 2% FBS and heparin and incubated on ice with 0.5 μg/ml hPVR-rbFc fusion protein in the presence of anti-TIGIT antibodies 313R19, 313M26, or 313M32 for 60 minutes. Antibody 313R19 is a humanized version of a rabbit anti-TIGIT antibody. 313R19 binds mouse and human TIGIT. The antibodies were tested at concentrations of 10, 2, and 0.4 ug/ml. Cells were incubated without antibody or without hPVR-rbFc as controls. A second incubation with 100 μl PE-conjugated anti-rabbit Fc secondary antibody was performed to detect cells bound by the hPVR-rbFc fusion protein. The cells were analyzed on a FACSCanto instrument (BD Biosciences) and the data was processed using FlowJo software.
All three anti-TIGIT antibodies blocked binding of hPVR-rbFc to hTIGIT at the highest concentration of 10 μg/ml.

human TIGIT = molecular target: T3, human TIGIT (human, UniProt Q495A1 22-141, limits assumed); experiment: Biacore, preliminary; format not stated
T3 construct: also called hTIGIT
T3 sequence: T2 sequence

[3] = molecular target: T4, hTIGIT variant 4 (D72E)-CD4TM-GFP on HEK-293T cells (human, UniProt Q495A1 22-141); experiment: FACS, 1 µg/ml antibody on transfected HEK-293T cells
T4 construct: not shown: transmembrane domain of CD4 (CD4TM); GFP tag
T4 chain: T2 sequence with D51E
Description: (§2) To identify the binding epitope of antibody 313M32, an analysis was performed with a series of variants of human TIGIT with specific amino acid substitutions. The variants were based upon the differences between human TIGIT and cynomolgus TIGIT amino acid sequences, SEQ ID NO:4 and SEQ ID NO:77, respectively. The amino acid sequence of rhesus monkey TIGIT (SEQ ID NO:78) is identical to cynomolgus TIGIT (FIG. 21). The amino acid variants introduce amino acid residues present in cynomolgus monkey TIGIT into corresponding positions in human TIGIT. The hTIGIT variants generated have substitutions at (1) E36K and […]; (2) T51M, (3) Q62H and Q64H, (4) D72E, (5) S78Y and S80A, (6) V100M, (7) I109T and T119R, and (8) G135S. Each variant hTIGIT was generated using the hTIGIT (aa 22-141)-CD4TM-GFP construct described in Example 15.
as §1

[4] = molecular target: T5, hTIGIT variant 1 (E36K and I41V)-CD4TM-GFP on HEK-293T cells (human, UniProt Q495A1 22-141); experiment: as above
T5 construct: read as I41V; not shown: transmembrane domain of CD4 (CD4TM); GFP tag
T5 chain: T2 sequence with E15K, I20V
Description: as §2, §1

[5] = molecular target: T6, hTIGIT variant 2 (T51M)-CD4TM-GFP on HEK-293T cells (human, UniProt Q495A1 22-141); experiment: as above
T6 construct: not shown: transmembrane domain of CD4 (CD4TM); GFP tag
T6 chain: T2 sequence with T30M
Description: as §2, §1

[6] = molecular target: T7, hTIGIT variant 8 (G135S)-CD4TM-GFP on HEK-293T cells (human, UniProt Q495A1 22-141); experiment: as above
T7 construct: not shown: transmembrane domain of CD4 (CD4TM); GFP tag
T7 chain: T2 sequence with G114S
Description: as §2, §1

[7] = molecular target: T8, hTIGIT variant 5 (S78Y and S80A)-CD4TM-GFP on HEK-293T cells (human, UniProt Q495A1 22-141); experiment: as above
T8 construct: not shown: transmembrane domain of CD4 (CD4TM); GFP tag
T8 chain: T2 sequence with S57Y, S59A
Description: as §2, §1

[8] = molecular target: T9, hTIGIT variant 6 (V100M)-CD4TM-GFP on HEK-293T cells (human, UniProt Q495A1 22-141); experiment: as above
T9 construct: not shown: transmembrane domain of CD4 (CD4TM); GFP tag
T9 chain: T2 sequence with V79M
Description: as §2, §1

[9] = molecular target: T10, hTIGIT variant 7 (I109T and T119R)-CD4TM-GFP on HEK-293T cells (human, UniProt Q495A1 22-141); experiment: FACS on transfected HEK-293T cells
T10 construct: not shown: transmembrane domain of CD4 (CD4TM); GFP tag
T10 chain: T2 sequence with I88T, T98R
Description: as §2
as §1, with “The 10A7 antibody is an anti-mouse TIGIT antibody that binds both mouse TIGIT and human TIGIT. A second incubation with 50 μl PE-conjugated anti-Fc secondary antibody was performed to detect cells bound by the antibodies.” left out

[10] = molecular target: T11, hTIGIT variant 3 (Q62H and Q64H)-CD4TM-GFP on HEK-293T cells (human, UniProt Q495A1 22-141); experiment: FACS on transfected HEK-293T cells
T11 construct: not shown: transmembrane domain of CD4 (CD4TM); GFP tag
T11 chain: T2 sequence with Q41H, Q43H
Description: as §2
as §1, with “The 10A7 antibody is an anti-mouse TIGIT antibody that binds both mouse TIGIT and human TIGIT. A second incubation with 50 μl PE-conjugated anti-Fc secondary antibody was performed to detect cells bound by the antibodies.” left out

- binding result [1]: no binding (tested: 1 µg/ml)
- fold higher affinity than antibody 313R19 [2]: ~5 fold
- Kd (human TIGIT): 0.4 nM
- binding result [3]: binds
- binding result [4]: binds
- binding result [5]: binds
- binding result [6]: binds
- binding result [7]: binds
- binding result [8]: binds
- binding result [9]: no binding (tested: 1 µg/ml)
- binding result [10]: no binding (tested: 1 µg/ml)
B1: anti-TIGIT antibody 313M32 (antibody, human IgG1, kappa, V domains shown)
VH: QVQLQESGPGLVKPSETLSLTCAVSGYSITSDYAWNWIRQPPGKGLEWIGYISYSGSTSYNPSLRSRVTISRDTSKNQFFLKLSSVTAADTAVYYCARRQVGLGFAYWGQGTLVTVSS
VL: DIQMTQSPSSLSASVGDRVTITCKASQDVSTAVAWYQQKPGKAPKLLIYSASYRYTGVPSRFSGSGSGTDFTFTISSLQPEDIATYYCQQHYSTPWTFGQGTKVEIKR
notes: Humanized version of 313M26, human IgG1
